The target of experiment [1] is Protein A (UniProt P38507). As to the kind of experiment: SPR; Protein A (0.25 mg/mL, 90 min) adsorbed to the gold surface of a Topas chip, blocked with 1 mg/mL BSA; 500 uL of 0.565 mg/mL IgG1 added for 90 min, rinsed with 10 mM Tris-HCl; plateaus in 10 mM Tris-HCl compared; measured together with EIS in one PDMS flow cell. On the technique in general: In SPR one partner is held on a chip, and binding of the other changes the refractive index at the surface.

Experiment [2] addresses Protein A (UniProt P38507). As to the kind of experiment: electrochemical impedance spectroscopy (EIS); Protein A (0.25 mg/mL, 90 min) adsorbed to the gold surface of a Topas chip, blocked with 1 mg/mL BSA; 500 uL of 0.565 mg/mL IgG1 added for 90 min, rinsed with 10 mM Tris-HCl; impedance at 251 Hz, AC amplitude 10 mV; measured together with SPR in one PDMS flow cell.

As for immunoglobulin-G (IgG1) (antibody), in the experiment with Protein A [1], the local minimum (RU) after IgG1 and the last rinse is 460 RU; the minimum shift, normalised to the initial value turned out to be 35.3%. In the experiment with Protein A [2], this substance returned an impedance at 251 Hz after IgG1 and the last rinse of 51 kΩ; an increase in impedance, normalised to the initial value of 18.6%.

The values above are taken from PMC3871058.
